Measured values published in PMC4831154, “Expression and characterization of a novel 1,3-regioselective cold-adapted lipase from Rhizomucor endophyticus suitable for biodiesel synthesis” (Biotechnology for Biofuels, 2016).

What was measured:
Experiment in all cases: purified protein
Type in all cases: biochemical, Mucor endophyticus
Conditions in all cases: 50 mM citrate buffer pH 6.0, 40 °C, 5 min
purified protein [1] = substrate: CCCCCCCC(=O)Oc1ccc([N+](=O)[O-])cc1
purified protein [2] = substrate: CCCCCCCCCCCCCC(=O)Oc1ccc([N+](=O)[O-])cc1
purified protein [3] = substrate: CCCCCCCCCCCC(=O)Oc1ccc([N+](=O)[O-])cc1

B1: ReLipA (Mucor endophyticus) (protein)
chain: PAAGTKGETSSAAAPHNNATMTASSYILPPIIPSRTKPGNPAFKGDVNAEAESIAKNKKWYEDHGGNFKNITKRDTETVGGMTMDLPANAPPVTTSTGSGVVTASAAQIANFKLYAGIASTAYCRGVVPLGSWTCNNCLKYVPDGKLLVTFSSLLADTNGFVLRSDSQKTIHLVFRGTNSIRSAITDLIFDLATYSPVSGAKVHRGFLASYKEVVNTYFPVVQAQLTAYPSYKVVISGHSLGGAQALLAGMDLYQRDKRLSPSNLSIYTVGCPRVGNPAFAYYVDSTGIPFSRSVNDRDIVPHVPPQAFGYLHPGVEAWDISSRVQICTANIETNKCSNSIVPFTSFVDHLTYYGINEGLCL
notes: ORF 1167 bp; SP-Sepharose purified
B1 was tested, and the Km (purified protein [1]) was 2300 ± 210 µM, the kcat/Km (purified protein [1]) was 387 M⁻¹ s⁻¹ and the Km (purified protein [2]) was 100 ± 10 µM. For the same protein, the kcat/Km (purified protein [2]) was 1790 M⁻¹ s⁻¹, the Km (purified protein [3]) was 640 ± 60 µM and the kcat/Km (purified protein [3]) was 416 M⁻¹ s⁻¹.
